This test addresses T1, recombinant GST-tagged HSC70 (wild type) (human, UniProt P11142-1 1-646).
T1 construct: HSC70, human HSPA8 cDNA in pGEX-6P-1; also called GST-HSC70; GST-HSC70 WT; source: BL21-Rosetta E. coli, purified (Glutathione Sepharose 4 Fast Flow, eluted with reduced glutathione)
The test can be described thus: pull-down; Strep-tagged CSN held on Streptactin Sepharose, HSC70 at a 1:5 ratio, room temperature; with or without 5 µM NR peptide; Coomassie or immunoblot. Particulars: both partners purified. (In general: A western blot detects proteins with antibodies after separation by electrophoresis.)

T1 sequence (P11142 whole entry): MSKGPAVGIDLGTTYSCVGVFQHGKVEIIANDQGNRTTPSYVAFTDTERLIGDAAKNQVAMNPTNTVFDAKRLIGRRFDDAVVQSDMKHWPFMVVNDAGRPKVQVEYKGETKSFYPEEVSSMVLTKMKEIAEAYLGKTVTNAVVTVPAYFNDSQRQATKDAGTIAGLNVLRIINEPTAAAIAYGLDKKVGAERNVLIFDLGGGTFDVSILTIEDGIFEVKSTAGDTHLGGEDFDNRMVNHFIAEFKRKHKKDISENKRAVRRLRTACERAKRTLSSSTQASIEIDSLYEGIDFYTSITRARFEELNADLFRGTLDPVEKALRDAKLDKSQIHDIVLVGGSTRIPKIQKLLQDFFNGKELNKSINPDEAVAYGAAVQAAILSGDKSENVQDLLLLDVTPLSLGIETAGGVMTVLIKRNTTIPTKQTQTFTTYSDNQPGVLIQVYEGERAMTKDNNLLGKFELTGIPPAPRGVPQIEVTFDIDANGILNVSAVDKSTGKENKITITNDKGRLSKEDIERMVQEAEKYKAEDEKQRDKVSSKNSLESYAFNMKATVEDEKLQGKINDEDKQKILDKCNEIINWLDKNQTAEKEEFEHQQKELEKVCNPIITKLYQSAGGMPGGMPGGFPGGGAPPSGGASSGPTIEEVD

B1: NR peptide (an HSC70 model substrate) (peptide)
peptide: NRLLLTGC
notes: NR peptide, HSC70 model substrate (Xu et al, 2012)
On to B1, for which the binding result was “binds”.
